Source: US20250257143A1 (FORTE SUBSIDIARY, published 2025)

T1: huCD122-HIS (ARCO Bio | Cat No. CD2-H5221) (human, UniProt P14784 27-239)
T1 construct: Bought analyte of the BLI assay; also called human CD122; not shown: His tag
T1 sequence (looked up): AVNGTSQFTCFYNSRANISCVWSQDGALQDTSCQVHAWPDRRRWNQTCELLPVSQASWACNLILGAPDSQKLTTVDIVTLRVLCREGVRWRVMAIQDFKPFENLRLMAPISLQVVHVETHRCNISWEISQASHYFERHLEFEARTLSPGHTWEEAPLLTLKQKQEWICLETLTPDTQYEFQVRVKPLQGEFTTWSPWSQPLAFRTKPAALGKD


What was measured:
[1] = target: T1, huCD122-HIS (ARCO Bio | Cat No. …); assay: BLI Octet, antibody captured on AHC sensor, huCD122-His analyte, 1:1 fit
Protocol: (§1) Based on Bio-Layer Interferometry (BLI), the Octet® BLI system is a fluidics-free instrument platform that enables real-time, label-free analysis for the determination of kinetics, affinity and antibody/protein quantitation. Binding experiments were performed on Octet HTX at 25° C. The analyte used was huCD122-HIS (ARCO Bio | Cat No. CD2-H5221) at a molecular weight of 25.4 kDa. The antibodies were loaded onto Anti-human Fc capture (AHC) sensors. The loaded sensors were dipped into serial dilutions of huCD122-His (Starting at 20 nM, 1:3 dilution, 4 points). Reference sample well (buffer) was used for data analysis. Kinetic constants were calculated using a monovalent (1:1) binding model. The assay buffer used was PBS with 0.1% BSA, […], pH 7.2. The regeneration buffer used was 10 mM Glycine buffer (pH 1.7). The four concentrations of huCD122-His used to determine anti-CD122 antibody binding and dissociation properties were 0.0 nM, 2.2 nM, 6.7 nM, and 20 nM. Sensorgram plots to display antibody binding characteristics were generated. The mouse parental chimera configurations in both IgG1 and IgG4 backbones (M5 IgG1 parental and M5 IgG4 parental) were tested as well as each combination of the humanized 3 HC and 3 LC variants in either an IgG1 or an IgG4 backbone.

[2] = target: T1, huCD122-HIS (ARCO Bio | Cat No. …); assay: BLI Octet; reference: parental chimeras (G1, G11)
Protocol: as §1

[3] = target: T1, huCD122-HIS (ARCO Bio | Cat No. …); assay: BLI Octet, antibody captured on AHC sensor, huCD122-His analyte, 1:1 fit; second batch
Protocol: as §1

Binder | Kd [1] | Response [1] | koff [1] | kon [1] | fold change in KD against the parental chimera [2] | Kd [3] | Response [3] | koff [3] | kon [3]
G15 (antibody, human IgG4 S228P, kappa, Humanized, human IgG4 (S228P), kappa) heavy: not shown light: DIQMTQSPSSLSASVGDRVTITCRASQDISNFLNWYQQKPEGTLKLLIYYTSGLHSGVPSRFSGSGSGTDFTLTISSLQPEDVATYYCQQDNNHPYTFGQGTKLEIKRTVAAPSVFIFPPSDEQLKSGTASVVCLLNNFYPREAKVQWKVDNALQSGNSQESVTEQDSKDSTYSLSSTLTLSKADYEKHKVYACEVTHQGLSSPVTKSFNRGEC | 1370 pM | 0.337 | 0.000639 s⁻¹ | 466000 M⁻¹ s⁻¹ | < 3 fold | 1330 pM | 0.312 | 0.000647 s⁻¹ | 485000 M⁻¹ s⁻¹
G5 (antibody, human IgG1, kappa, Humanized, human IgG1 (G1M17), kappa) heavy: not shown light: DIQMTQSPSSLSASVGDRVTITCRASQDISNFLNWYQQKPEGTLKLLIYYTSGLHSGVPSRFSGSGSGTDFTLTISSLQPEDVATYYCQQDNNHPYTFGQGTKLEIKRTVAAPSVFIFPPSDEQLKSGTASVVCLLNNFYPREAKVQWKVDNALQSGNSQESVTEQDSKDSTYSLSSTLTLSKADYEKHKVYACEVTHQGLSSPVTKSFNRGEC | 1180 pM | 0.377 | 0.000581 s⁻¹ | 494000 M⁻¹ s⁻¹ | < 3 fold | – | – | – | –
G18 (antibody, human IgG4 S228P, kappa, Humanized, human IgG4 (S228P), kappa) heavy: not shown light: DIQMTQSPSSLSASVGDRVTITCRASQDISNFLNWYQQKPEGTLKLLIYYTSGLHSGVPSRFSGSGSGTDFTLTISSLQPEDVATYYCQQDNNHPYTFGQGTKLEIKRTVAAPSVFIFPPSDEQLKSGTASVVCLLNNFYPREAKVQWKVDNALQSGNSQESVTEQDSKDSTYSLSSTLTLSKADYEKHKVYACEVTHQGLSSPVTKSFNRGEC | 980 pM | 0.315 | 0.000453 s⁻¹ | 462000 M⁻¹ s⁻¹ | < 3 fold | – | – | – | –
G12 (antibody, human IgG4 S228P, kappa, Humanized, human IgG4 (S228P), kappa) heavy: not shown light: DIQMTQSPSSLSASVGDRVTITCRASQDISNFLNWYQQKPEGTLKLLIYYTSGLHSGVPSRFSGSGSGTDFTLTISSLQPEDVATYYCQQDNNHPYTFGQGTKLEIKRTVAAPSVFIFPPSDEQLKSGTASVVCLLNNFYPREAKVQWKVDNALQSGNSQESVTEQDSKDSTYSLSSTLTLSKADYEKHKVYACEVTHQGLSSPVTKSFNRGEC | 1080 pM | 0.354 | 0.000488 s⁻¹ | 451000 M⁻¹ s⁻¹ | < 3 fold | 1430 pM | 0.334 | 0.000646 s⁻¹ | 452000 M⁻¹ s⁻¹

Now those with a lower Kd [1], led by results:

Kd [1] | Response [1] | koff [1] | kon [1] | fold change in KD against the parental chimera [2] | Kd [3] | Response [3] | koff [3] | kon [3] | Binder
831 pM | 0.372 | 0.000409 s⁻¹ | 492000 M⁻¹ s⁻¹ | < 3 fold | – | – | – | – | G2 (antibody, human IgG1, kappa, Humanized, human IgG1 (G1M17), kappa) heavy: not shown light: DIQMTQSPSSLSASVGDRVTITCRASQDISNFLNWYQQKPEGTLKLLIYYTSGLHSGVPSRFSGSGSGTDFTLTISSLQPEDVATYYCQQDNNHPYTFGQGTKLEIKRTVAAPSVFIFPPSDEQLKSGTASVVCLLNNFYPREAKVQWKVDNALQSGNSQESVTEQDSKDSTYSLSSTLTLSKADYEKHKVYACEVTHQGLSSPVTKSFNRGEC
943 pM | 0.389 | 0.000425 s⁻¹ | 450000 M⁻¹ s⁻¹ | < 3 fold | – | – | – | – | G8 (antibody, human IgG1, kappa, Humanized, human IgG1 (G1M17), kappa) heavy: not shown light: DIQMTQSPSSLSASVGDRVTITCRASQDISNFLNWYQQKPEGTLKLLIYYTSGLHSGVPSRFSGSGSGTDFTLTISSLQPEDVATYYCQQDNNHPYTFGQGTKLEIKRTVAAPSVFIFPPSDEQLKSGTASVVCLLNNFYPREAKVQWKVDNALQSGNSQESVTEQDSKDSTYSLSSTLTLSKADYEKHKVYACEVTHQGLSSPVTKSFNRGEC
727 pM | 0.381 | 0.0004 s⁻¹ | 549000 M⁻¹ s⁻¹ | – | – | – | – | – | G1 (antibody, Chimeric: mouse parental variable domains in human IgG1 (G1M17 allotype), kappa; also called M5 IgG1 parental; G1 mouse parental IgG1 chimera) heavy: not shown light: DIQMTQTTSSLSASLGDRVTINCRASQDISNFLNWYQQKPDGTLKLLIYYTSGLHSGVPSRFSGSGSGTDYSLTISNLEEEDIATYFCQQDNNHPYTFGSGTKLEIKRTVAAPSVFIFPPSDEQLKSGTASVVCLLNNFYPREAKVQWKVDNALQSGNSQESVTEQDSKDSTYSLSSTLTLSKADYEKHKVYACEVTHQGLSSPVTKSFNRGEC
795 pM | 0.326 | 0.000423 s⁻¹ | 532000 M⁻¹ s⁻¹ | – | 866 pM | 0.327 | 0.000491 s⁻¹ | 567000 M⁻¹ s⁻¹ | G11 (antibody, human IgG4 S228P, kappa, Chimeric: mouse parental variable domains in human IgG4 (S228P), kappa; also called M5 IgG4 parental; G11 mouse parental IgG4 chimera) heavy: not shown light: DIQMTQTTSSLSASLGDRVTINCRASQDISNFLNWYQQKPDGTLKLLIYYTSGLHSGVPSRFSGSGSGTDYSLTISNLEEEDIATYFCQQDNNHPYTFGSGTKLEIKRTVAAPSVFIFPPSDEQLKSGTASVVCLLNNFYPREAKVQWKVDNALQSGNSQESVTEQDSKDSTYSLSSTLTLSKADYEKHKVYACEVTHQGLSSPVTKSFNRGEC
